Source: patent JP2008058208A (dated 2008)

T1: C−反応性タンパク(CRP), ヒトCRP抗原 (human, UniProt P02741 19-224)
T1 sequence (looked up): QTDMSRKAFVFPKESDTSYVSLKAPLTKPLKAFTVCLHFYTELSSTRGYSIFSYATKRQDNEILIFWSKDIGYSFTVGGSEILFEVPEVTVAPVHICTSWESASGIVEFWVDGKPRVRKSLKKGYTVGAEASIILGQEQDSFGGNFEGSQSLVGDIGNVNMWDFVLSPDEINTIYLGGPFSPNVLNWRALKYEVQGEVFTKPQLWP


How the values were obtained:
C−反応性タンパク(CRP), ヒトCRP抗原 [1] = target: T1, C−反応性タンパク(CRP), ヒトCRP抗原; test: phage ELISA on plate-coated CRP, detected with HRP/anti-M13
Protein A = target: T2, Protein A (Staphylococcus aureus, UniProt P38507 37-477); test: immunochromatography test strip, His20 as capture and as gold-colloid label; samples of Protein A and S. aureus cell suspensions
T2 construct: also called プロテインA; Staphylococcus aureusが産生するProtein A

C−反応性タンパク(CRP), ヒトCRP抗原 [2] = target: T1, C−反応性タンパク(CRP), ヒトCRP抗原; test: ELISA of His-tag purified scFv on CRP

Binder	binding result (C−反応性タンパク(CRP), ヒトCRP抗原 [1])	also measured
陽性クローン株No.20のファージ抗体 (scFv No.20 displayed on M13 phage) (scFv, not shown: C-terminal fusion to the phage coat protein from phagemid pCANTAB5E; not spelled out) scFv: MAQVKLPESGAELVKPGASVKLSCTPSGFNIKDTYIHWVRQRPGQGLEWIGRIDPANGHTRYAPKFQGKATLTADASSNTAYLHLSSLTSEDTAVYYCPRIVWYSGGYAMDYWGQGTTVTVSSGGGGSGGGGSGGGGSDIELTQSPSSMYASLGERVTITCKASQDINSYLSWFQQKPGKSPKTLIYRANRLVDGVPSRFSGSGSGQDYSLTISSLKYEDMGIYYCLQYDEFPLTFGGGTKLEIKRAA	binds	–
抗CRPscFv抗体No.20 (His-tagged scFv, His20) (scFv, Mouse scFv (VH-(G4S)3 linker-VL) from an immune phage library, expressed in E. coli HB2151 and purified by the His tag; also called No.20抗体; His20 scFv抗体; not shown: C-terminal 6x histidine tag added by a standard method) scFv: MAQVKLPESGAELVKPGASVKLSCTPSGFNIKDTYIHWVRQRPGQGLEWIGRIDPANGHTRYAPKFQGKATLTADASSNTAYLHLSSLTSEDTAVYYCPRIVWYSGGYAMDYWGQGTTVTVSSGGGGSGGGGSGGGGSDIELTQSPSSMYASLGERVTITCKASQDINSYLSWFQQKPGKSPKTLIYRANRLVDGVPSRFSGSGSGQDYSLTISSLKYEDMGIYYCLQYDEFPLTFGGGTKLEIKRAA	–	binding result (Protein A): no binding
陽性クローン株No.40のファージ抗体 (scFv No.40 displayed on M13 phage) (scFv, not shown: C-terminal fusion to the phage coat protein from phagemid pCANTAB5E; not spelled out) scFv: MAQVKLQQSGAEVVKPGASVKLSCKASGYTFIFYHIYWVKQRPGQGLEWIGGINPRSGGTNLNEKFKSKATLTVDKSSSTAYMQLNGLTSEDSAFYYCTRSGTTYDYALDYWGQGTTVTVSSGGGGSGGGGSGGGGSDIELTQSPAIMAASLGQKVTMTCSASSSMSSSYLHWYQQKSGASPKPLIHRTSTLASGVPARFSGSGSGTSYSLTISSVEAEDDATYYCQQWSGYPLTFGGGTKLEIKRAAA	binds	–
抗CRPscFv抗体No.40 (His-tagged scFv, His40) (scFv, Mouse scFv (VH-(G4S)3 linker-VL) from an immune phage library, expressed in E. coli HB2151 and purified by the His tag; also called No.40抗体; not shown: C-terminal 6x histidine tag added by a standard method) scFv: MAQVKLQQSGAEVVKPGASVKLSCKASGYTFIFYHIYWVKQRPGQGLEWIGGINPRSGGTNLNEKFKSKATLTVDKSSSTAYMQLNGLTSEDSAFYYCTRSGTTYDYALDYWGQGTTVTVSSGGGGSGGGGSGGGGSDIELTQSPAIMAASLGQKVTMTCSASSSMSSSYLHWYQQKSGASPKPLIHRTSTLASGVPARFSGSGSGTSYSLTISSVEAEDDATYYCQQWSGYPLTFGGGTKLEIKRAAA	–	binding result (C−反応性タンパク(CRP), ヒトCRP抗原 [2]): binds
